In article PMC7666158:

Experiments:
[1] = biological target: CF-evJIP (carboxyfluorescein-labeled reporter docking peptide); assay: fluorescence polarisation; direct titration: 50 nM CF-evJIP, JNK1 concentration increased; 20 mM Tris pH 8.0, 100 mM NaCl, 0.05% Brij35P, 2 mM TCEP; 384-well plates
[2] = biological target: JNK1-dc20 (JNK1 with the C-terminal 20 residues truncated) (human) (UniProt P45983); assay: fluorescence polarisation; competitive: 50 nM CF-evJIP with JNK1 at ~60–80% complex, titrated with unlabeled competitor; 20 mM Tris pH 8.0, 100 mM NaCl, 0.05% Brij35P, 2 mM TCEP; 384-well plates
[3] = biological target: pp-p38 (double-phosphorylated, activated p38α) (human) (UniProt Q16539); assay: competition in an in vitro kinase assay; 2 nM pp-p38, 2 µM MBP-ATF2 substrate, 3-fold dilution series of peptide from 1 mM; phospho-ATF2 dot blot; Ki = IC50/(1 + S/KM), KM 17.3 µM

Substance	Ki [3] [µM]	further results
JNK1-dc20 (JNK1 where the C-terminal 20 residues are truncated) (from UniProt P45983 1-364) (enzyme)	–	Kd [1]: 0.47 µM
MBP-c-Jun(1–78) K35E (domain or fragment)	–	fold decrease in binding against the wild type [2]: 10 fold
SPFENEF peptide (ATF2 83–102) phospho-S90	820	–
SPFENEF peptide (ATF2 83–102) S90N (from UniProt P15336-1 83-102)	7.5	–
SPFENEF peptide (ATF2 83–102), WT	33.6	–
ATF2(19–100) Q34R/H47R (mutant construct of the FP assay of Fig. 2b) (from UniProt P15336-1 19-100) (domain or fragment)	–	fold stronger binding than the wild type [2]: 100 fold
